In general, Kd refers to the constant that tells how readily two partners part at equilibrium. A higher Kd goes with a looser complex.

One assay concerns the target T1, HA-tagged SQSTM1 (Homo sapiens (Human)., UniProt Q13501).
T1 construct: autophagy receptor SQSTM1, full length; the printed limits 1-440 fit the human protein; also called HA-tagged bait; full length; source: HEK293T, transfected, in fixed cells (screen)
The assay can be described thus: proximity ligation; pooled screen (isPLA-seq): Flag-tagged sdAb library co-transfected with HA-tagged SQSTM1 into HEK293T cells, fixed after 48 h, isPLA with anti-HA and anti-Flag antibodies, positive cells sorted by FACS, three rounds, CDR3 sequenced. Particulars: partners not purified. A general note: A flow cytometer gives signals particle by particle.

In assay [1] the target is T2, Sqstm1 (endogenous, LLC1 cells) (Mus musculus (Mouse)., UniProt Q64337).
T2 construct: mouse Sqstm1, endogenous in Lewis lung carcinoma (LLC1) cells; also called denatured Sqstm1; source: endogenous, LLC1 cells (lysate for Western blot; fixed cells for staining)
The assay can be described thus: far-Western, overlay or dot blot. The following applies: one partner purified.

For a further assay, the target named is GST-SQSTM1, 221–440 aa (Homo sapiens (Human)., UniProt Q13501). The assay can be described thus: ITC. Particulars: both partners purified.

B1: anti-SQSTM1 sdAb #2 (Flag-tagged, sdAb library) (VHH)
VHH: QVQLVESGGGSVQAGGSLRLSCTASGGSEYSYSTFSLGWFRQAPGQEREAVAAIASMGGLTYYADSVKGRFTISRDNAKNTVTLQMNNLKPEDTAIYYCAARAGVCGVVGSFSMYTIGNWVYWGQGTQVTVSS
notes: 21-aa CDR3 in place of the CDR3 of cAbBCII10; also called clone #2; source: HEK293T, transfected (sdAb library in pcDNA3.1), in fixed cells; not shown: 3x Flag, C-terminal, kept
In the case of B1, the binding result in the assay with HA-tagged SQSTM1 is “binds”.

B2: purified anti-SQSTM1 sdAb clone #2 (VHH)
VHH: B1 VHH
With B2, the binding result in assay [1] is on record as “binds”.

B3: anti-SQSTM1 sdAb #10 (Flag-tagged, sdAb library) (VHH)
VHH: QVQLVESGGGSVQAGGSLRLSCTASGGSEYSYSTFSLGWFRQAPGQEREAVAAIASMGGLTYYADSVKGRFTISRDNAKNTVTLQMNNLKPEDTAIYYCAAVLHVLSWDRCEYDPAHDLRTAWGQGTQVTVSS
notes: 21-aa CDR3 in place of the CDR3 of cAbBCII10; source: HEK293T, transfected (sdAb library in pcDNA3.1), in fixed cells; not shown: 3x Flag, C-terminal, kept
Turning to B3, the binding result with HA-tagged SQSTM1 is listed as “binds”.

B4: anti-SQSTM1 sdAb #7 (Flag-tagged, sdAb library) (VHH)
VHH: QVQLVESGGGSVQAGGSLRLSCTASGGSEYSYSTFSLGWFRQAPGQEREAVAAIASMGGLTYYADSVKGRFTISRDNAKNTVTLQMNNLKPEDTAIYYCAAAYIAKRPCCDCREVQWGSRTCWGQGTQVTVSS
notes: as for B3
In the case of B4, the binding result in the assay with HA-tagged SQSTM1 is listed as “binds”.

B5: anti-SQSTM1 sdAb #13 (Flag-tagged, sdAb library) (VHH)
VHH: QVQLVESGGGSVQAGGSLRLSCTASGGSEYSYSTFSLGWFRQAPGQEREAVAAIASMGGLTYYADSVKGRFTISRDNAKNTVTLQMNNLKPEDTAIYYCAAREPFARYLRKESYPLFRMYSFWGQGTQVTVSS
notes: as for B3
In the case of B5, the binding result with HA-tagged SQSTM1 is “binds”.

B6: anti-SQSTM1 sdAb #17 (Flag-tagged, sdAb library) (VHH)
VHH: QVQLVESGGGSVQAGGSLRLSCTASGGSEYSYSTFSLGWFRQAPGQEREAVAAIASMGGLTYYADSVKGRFTISRDNAKNTVTLQMNNLKPEDTAIYYCAAAVESCDGFRTGRTVPYREVTYWGQGTQVTVSS
notes: as for B3
On to B6, for which the binding result with HA-tagged SQSTM1 is “binds”.

B7: anti-SQSTM1 sdAb #19 (Flag-tagged, sdAb library) (VHH)
VHH: QVQLVESGGGSVQAGGSLRLSCTASGGSEYSYSTFSLGWFRQAPGQEREAVAAIASMGGLTYYADSVKGRFTISRDNAKNTVTLQMNNLKPEDTAIYYCAARQAPFGSRCSISSSPKGRYPSWGQGTQVTVSS
notes: as for B3
For the molecule B7, the binding result in the assay with HA-tagged SQSTM1 is listed as “binds”.

B8: anti-SQSTM1 sdAb #4 (Flag-tagged, sdAb library) (VHH)
VHH: QVQLVESGGGSVQAGGSLRLSCTASGGSEYSYSTFSLGWFRQAPGQEREAVAAIASMGGLTYYADSVKGRFTISRDNAKNTVTLQMNNLKPEDTAIYYCAAAYGNDVQSVAFKYVVGRGYQLWGQGTQVTVSS
notes: as for B3
On to B8, for which the binding result with HA-tagged SQSTM1 is reported as “binds”.

B9: anti-SQSTM1 sdAb #18 (Flag-tagged, sdAb library) (VHH)
VHH: QVQLVESGGGSVQAGGSLRLSCTASGGSEYSYSTFSLGWFRQAPGQEREAVAAIASMGGLTYYADSVKGRFTISRDNAKNTVTLQMNNLKPEDTAIYYCAAGIGYAGDCRAHTIATRRFSVGWGQGTQVTVSS
notes: as for B3
Take B9: the binding result with HA-tagged SQSTM1 is recorded as “binds”.

B10: anti-SQSTM1 sdAb #24 (Flag-tagged, sdAb library) (VHH)
VHH: QVQLVESGGGSVQAGGSLRLSCTASGGSEYSYSTFSLGWFRQAPGQEREAVAAIASMGGLTYYADSVKGRFTISRDNAKNTVTLQMNNLKPEDTAIYYCAAVRTPVILRCFQSGIFYLVGEVWGQGTQVTVSS
notes: as for B3
Regarding B10, in the assay with HA-tagged SQSTM1, the binding result is recorded as “binds”.

B11: anti-SQSTM1 sdAb #12 (Flag-tagged, sdAb library) (VHH)
VHH: QVQLVESGGGSVQAGGSLRLSCTASGGSEYSYSTFSLGWFRQAPGQEREAVAAIASMGGLTYYADSVKGRFTISRDNAKNTVTLQMNNLKPEDTAIYYCAADQVRDHSWCNLFRTLRVCVLIWGQGTQVTVSS
notes: as for B3
For the molecule B11, the binding result with HA-tagged SQSTM1 is recorded as “binds”.

B12: anti-SQSTM1 sdAb #26 (Flag-tagged, sdAb library) (VHH)
VHH: QVQLVESGGGSVQAGGSLRLSCTASGGSEYSYSTFSLGWFRQAPGQEREAVAAIASMGGLTYYADSVKGRFTISRDNAKNTVTLQMNNLKPEDTAIYYCAAFPSRLKCTRGCGCRTFNFPALWGQGTQVTVSS
notes: as for B3
Take B12: in the assay with HA-tagged SQSTM1, the binding result was “binds”.

B13: anti-SQSTM1 sdAb #11 (Flag-tagged, sdAb library) (VHH)
VHH: QVQLVESGGGSVQAGGSLRLSCTASGGSEYSYSTFSLGWFRQAPGQEREAVAAIASMGGLTYYADSVKGRFTISRDNAKNTVTLQMNNLKPEDTAIYYCAAARAHFASLCDCQGNRITLLCDWGQGTQVTVSS
notes: as for B3
As for B13, in the assay with HA-tagged SQSTM1, the binding result is given as “binds”.

B14: anti-SQSTM1 sdAb #21 (Flag-tagged, sdAb library) (VHH)
VHH: QVQLVESGGGSVQAGGSLRLSCTASGGSEYSYSTFSLGWFRQAPGQEREAVAAIASMGGLTYYADSVKGRFTISRDNAKNTVTLQMNNLKPEDTAIYYCAADLWAPLMVCSGGLTQMLSNSDWGQGTQVTVSS
notes: as for B3
Take B14: the binding result with HA-tagged SQSTM1 was “binds”.

B15: anti-SQSTM1 sdAb #22 (Flag-tagged, sdAb library) (VHH)
VHH: QVQLVESGGGSVQAGGSLRLSCTASGGSEYSYSTFSLGWFRQAPGQEREAVAAIASMGGLTYYADSVKGRFTISRDNAKNTVTLQMNNLKPEDTAIYYCAAACELDAVRLWPDFVRPAVFSIWGQGTQVTVSS
notes: as for B3
In the case of B15, the binding result with HA-tagged SQSTM1 is recorded as “binds”.

B16: anti-SQSTM1 sdAb #20 (Flag-tagged, sdAb library) (VHH)
VHH: QVQLVESGGGSVQAGGSLRLSCTASGGSEYSYSTFSLGWFRQAPGQEREAVAAIASMGGLTYYADSVKGRFTISRDNAKNTVTLQMNNLKPEDTAIYYCAAPGHGRPWRAATFPVDEGGGSAWGQGTQVTVSS
notes: as for B3
Consider B16, for which the binding result with HA-tagged SQSTM1 is recorded as “binds”.

B17: purified anti-SQSTM1 sdAb clone #1, C-terminal ETA-fused and Flag-tagged (VHH)
VHH: QVQLVESGGGSVQAGGSLRLSCTASGGSEYSYSTFSLGWFRQAPGQEREAVAAIASMGGLTYYADSVKGRFTISRDNAKNTVTLQMNNLKPEDTAIYYCAAEGLVYWTTKKSFGGCLLHDWSWGQGTQVTVSS
notes: also called anti-SQSTM1 sdAb #1; ETA-tagged anti-SQSTM1 sdAb
For B17, the affinity with GST-SQSTM1, 221–440 aa, expressed as Kd, was 8.8 ± 1.39 µM.

B18: anti-SQSTM1 sdAb #15 (Flag-tagged, sdAb library) (VHH)
VHH: QVQLVESGGGSVQAGGSLRLSCTASGGSEYSYSTFSLGWFRQAPGQEREAVAAIASMGGLTYYADSVKGRFTISRDNAKNTVTLQMNNLKPEDTAIYYCAALRWSWFPSGSTANLSLGIGCTWGQGTQVTVSS
notes: as for B3
B18: the binding result in the assay with HA-tagged SQSTM1 is listed as “binds”.

B19: anti-SQSTM1 sdAb #5 (Flag-tagged, sdAb library) (VHH)
VHH: QVQLVESGGGSVQAGGSLRLSCTASGGSEYSYSTFSLGWFRQAPGQEREAVAAIASMGGLTYYADSVKGRFTISRDNAKNTVTLQMNNLKPEDTAIYYCAAYDRVGGGHVLIACYSDDLCMGWGQGTQVTVSS
notes: as for B3
For the molecule B19, the binding result with HA-tagged SQSTM1 is “binds”.

B20: anti-SQSTM1 sdAb #16 (Flag-tagged, sdAb library) (VHH)
VHH: QVQLVESGGGSVQAGGSLRLSCTASGGSEYSYSTFSLGWFRQAPGQEREAVAAIASMGGLTYYADSVKGRFTISRDNAKNTVTLQMNNLKPEDTAIYYCAANMAIRVRWVAMFTCGPIGGVGWGQGTQVTVSS
notes: as for B3
For B20, the binding result with HA-tagged SQSTM1 is on record as “binds”.

B21: anti-SQSTM1 sdAb #27 (Flag-tagged, sdAb library) (VHH)
VHH: QVQLVESGGGSVQAGGSLRLSCTASGGSEYSYSTFSLGWFRQAPGQEREAVAAIASMGGLTYYADSVKGRFTISRDNAKNTVTLQMNNLKPEDTAIYYCAAIIAELCSGLPCTSFLRTPCPVWGQGTQVTVSS
notes: as for B3
In the case of B21, the binding result in the assay with HA-tagged SQSTM1 is “binds”.

B22: anti-SQSTM1 sdAb #3 (Flag-tagged, sdAb library) (VHH)
VHH: QVQLVESGGGSVQAGGSLRLSCTASGGSEYSYSTFSLGWFRQAPGQEREAVAAIASMGGLTYYADSVKGRFTISRDNAKNTVTLQMNNLKPEDTAIYYCAARVRTSPRSAVADGSAYRSESAWGQGTQVTVSS
notes: as for B3
With B22, the binding result with HA-tagged SQSTM1 was “binds”.

B23: anti-SQSTM1 sdAb #23 (Flag-tagged, sdAb library) (VHH)
VHH: QVQLVESGGGSVQAGGSLRLSCTASGGSEYSYSTFSLGWFRQAPGQEREAVAAIASMGGLTYYADSVKGRFTISRDNAKNTVTLQMNNLKPEDTAIYYCAARRGFVRHTKIKLLDYALTEVRWGQGTQVTVSS
notes: as for B3
As to B23, in the assay with HA-tagged SQSTM1, the binding result was “binds”.

B24: anti-SQSTM1 sdAb #14 (Flag-tagged, sdAb library) (VHH)
VHH: QVQLVESGGGSVQAGGSLRLSCTASGGSEYSYSTFSLGWFRQAPGQEREAVAAIASMGGLTYYADSVKGRFTISRDNAKNTVTLQMNNLKPEDTAIYYCAAGGNTVKVSNIFEVSSSVRVRLWGQGTQVTVSS
notes: as for B3
As to B24, in the assay with HA-tagged SQSTM1, the binding result is given as “binds”.

B25: anti-SQSTM1 sdAb #6 (Flag-tagged, sdAb library) (VHH)
VHH: QVQLVESGGGSVQAGGSLRLSCTASGGSEYSYSTFSLGWFRQAPGQEREAVAAIASMGGLTYYADSVKGRFTISRDNAKNTVTLQMNNLKPEDTAIYYCAALLVIDSSVIARLDGRGRSDRLWGQGTQVTVSS
notes: as for B3
For the molecule B25, the binding result with HA-tagged SQSTM1 is “binds”.

B26: anti-SQSTM1 sdAb #8 (Flag-tagged, sdAb library) (VHH)
VHH: QVQLVESGGGSVQAGGSLRLSCTASGGSEYSYSTFSLGWFRQAPGQEREAVAAIASMGGLTYYADSVKGRFTISRDNAKNTVTLQMNNLKPEDTAIYYCAAARVFMPCTPSHIIGAMCTLACWGQGTQVTVSS
notes: as for B3
Turning to B26, the binding result with HA-tagged SQSTM1 is recorded as “binds”.

B27: anti-SQSTM1 sdAb #25 (Flag-tagged, sdAb library) (VHH)
VHH: QVQLVESGGGSVQAGGSLRLSCTASGGSEYSYSTFSLGWFRQAPGQEREAVAAIASMGGLTYYADSVKGRFTISRDNAKNTVTLQMNNLKPEDTAIYYCAAPGDGQEVIFAFVQRSTRAWPVWGQGTQVTVSS
notes: as for B3
For B27, the binding result with HA-tagged SQSTM1 is given as “binds”.

B28: anti-SQSTM1 sdAb #9 (Flag-tagged, sdAb library) (VHH)
VHH: QVQLVESGGGSVQAGGSLRLSCTASGGSEYSYSTFSLGWFRQAPGQEREAVAAIASMGGLTYYADSVKGRFTISRDNAKNTVTLQMNNLKPEDTAIYYCAADRGCHSTLGSRISFFKGCIIGWGQGTQVTVSS
notes: as for B3
Take B28: in the assay with HA-tagged SQSTM1, the binding result is on record as “binds”.

For the origin of these results see PMC8548206, “Single-domain antibody screening by isPLA-seq” (Life Science Alliance, 2021).
